In patent US4829052A, “Serine protease inhibitors” (Monsanto Company, priority 1987, dated 1989):

Tests used:
Type in all cases: biochemical
Human Sputum Cathepsin G = target: T1, Human Sputum Cathepsin G (Homo sapiens, UniProt P08311); test: Cathepsin G assay (spectrophotometric, p-nitroanilide substrate); conditions: for Inhibitory Activity Cathepsin G: inhibitor/protease ratio between about 10/1 and 50/1; for inhibition of cathepsin G (in words): text discussion of Table III
T1 construct: Human Sputum Cathepsin G (Product No. SG-45, EPC, Inc., Pacific, Mo.); purchased EPC, Inc., Pacific, Mo; SG-45; host or cells: human sputum
T1 sequence (P08311 21-255): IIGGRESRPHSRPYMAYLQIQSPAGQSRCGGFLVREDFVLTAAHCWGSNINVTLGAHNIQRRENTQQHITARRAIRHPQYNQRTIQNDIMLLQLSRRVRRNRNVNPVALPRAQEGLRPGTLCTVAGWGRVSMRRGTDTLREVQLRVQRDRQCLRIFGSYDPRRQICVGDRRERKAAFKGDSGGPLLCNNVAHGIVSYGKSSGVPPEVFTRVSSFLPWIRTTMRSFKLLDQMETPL
Method: (§1) The inhibitory activity of the polypeptides of the present invention can be easily assayed using in vitro assays. In these types of spectrophotometric assays the activity of the serine protease is measured toward an appropriate p-nitroanilide substrate in the presence and absence of the peptide inhibitor. The enzyme catalyzed hydrolysis of the peptide p-nitroanilide substrate produces p-nitroanaline which results in an increase in absorbance which is monitored in the range of 405 to 410 nm. The rate of increase in absorbance is a measure of the enzymatic activity and the decrease in this rate relative to a suitable control is used to ascertain inhibition. The general assay procedure and details of the particular assays employed in the examples are provided in the Appendix following the examples. It is also possible to test the polypeptides in a functionally oriented assay that emulates in vivo conditions. Such an inhibition assay for elastase is also described in the Appendix.
(§2) Generalized Protocol Spectrophotometric Assays:
(§3) (1) Pipette 100 μl of enzyme solution into a disposable polystyrene cuvette (1 cm optical path length).
(§4) (2) Add (1900-X) μl of bufferto the cuvette, where X is the volume of test solution in microliters that is added in the next step.
(§5) Add X μl of test solution to the cuvette, where X ranges from 0 μl for the control to a maximum of about 500 μl. Incubate the solution for a period of 1 to 5 minutes at ambient temperature.
(§6) (4) Add 100 μl of substrate solution to the cuvette. Mix the contents by covering the cuvette with a piece of paraffin film and repeatedly inverting for a period of 5 to 15 seconds.
(§7) (5) Record the change in absorbance for about 5 minutes at either 405 or 410 nm, depending on the assay, with a spectrophotometer equipped with a suitable recording device.
(§8) The percent inhibition is calculated from the formula [formula] where (ΔA/min) is the initial rate of absorbance change.
(§9) (7) For more accurate quantitative determinations temperature control of the cuvette holders and the reagent solutions can be instituted.
(§10) (8) The test solution can be crude oxidized peptide prepared as described above, fractions from a chromatographic separation or purified polypeptides.
(A) Buffer Solution - Tris-NaCl buffer consisting of 0.1M Tris-HCl, pH 8.0 containing 0.5M NaCl and 0.03% sodium azide.
(B) Substrate solution - Dissolve 50 mg of N-succinyl-L-alanyl-L-alanyl-L-prolyl-L-phenylalanine p-nitroanilide in 1 ml of 1-methyl-2-pyrrolidinone and dilute to 50 ml with Tris-NaCl buffer.
(C) Enzyme Solution - Human Sputum Cathepsin G (Product No. SG-45, EPC, Inc., Pacific, Mo.). Dissolve 1 mg of protein per 1 ml of Tris-NaCl buffer. Store on ice or at 4° C.
(D) Test Solutions - See the general protocol, number 8.
Procedure: Use the above solution in the general protocol described above. […]

bovine chymotrypsin = bovine chymotrypsin (Bos taurus, UniProt P00766); test: Chymotrypsin assay (spectrophotometric, p-nitroanilide substrate); conditions: for Inhibitory Activity Chymotrypsin: inhibitor/protease ratio between about 10/1 and 50/1; for inhibition of chymotrypsin (in words): text discussion of Table III
Method: as §1, §2, §3, §4, §5, §6, §7, §8, §9, §10
(A) Buffer solution - triethanolamine buffer- See trypsin assay.
(B) Substrate Solution - Dissolve 25 mg of 3-carbomethoxypropionyl-L-arginyl-L-prolyl-L-tyrosine p-nitroanilide (Product No. S-2586, KabiVitrum AB, Stockholm, Sweden) in 23.6 ml of water
(C) Enzyme solution - Dissolve 1 mg of bovine chymotrypsin in 4 ml of 0.001N HCl. Prepare the final dilution by combining 0.1 ml of the stock chymotrypsin solution and 10 ml of 0.001N HCl. Store on ice or at 4° C.
Procedure: Use the above solutions in the general protocol
(2) See note 1 of the cathepsin G assay.
(3) 0.1M Tris-HCl, pH 7.8, 20 mM CaCl2, 0.05% triton X-100 can be substituted for the triethanolamine buffer.

bovine trypsin = target: T2, bovine trypsin (Bos taurus, UniProt P00760); test: Trypsin assay (spectrophotometric, N-Benzoyl-L-arginine p-nitroanilide substrate); conditions: for Inhibitory Activity Trypsin: inhibitor/protease ratio between about 10/1 and 50/1; for inhibition of trypsin (in words): text discussion of Table III
T2 sequence (P00760 24-246): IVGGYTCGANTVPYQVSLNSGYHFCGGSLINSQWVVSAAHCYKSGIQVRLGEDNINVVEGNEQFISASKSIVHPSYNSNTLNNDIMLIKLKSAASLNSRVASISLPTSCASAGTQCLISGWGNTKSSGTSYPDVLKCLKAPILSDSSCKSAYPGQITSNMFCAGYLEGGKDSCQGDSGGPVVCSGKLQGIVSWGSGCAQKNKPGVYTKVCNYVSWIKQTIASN
Method: as §1, §2, §3, §4, §5, §6, §7, §8, §9, §10
(A) Buffer Solution - Triethanolamine buffer consisting of 200 mM triethanolamine, 20 mM CaCl2, pH 7.8
(B) Substrate solution - Dissolve 50 mg of N-Benzoyl-L-arginine p-nitroanilide in 50 ml of water. Sonicate for 5 to 10 minutes to completely dissolve the solid material.
(C) Enzyme solution - Dissolve 1 mg of bovine trypsin in 10 ml of 0.001N HCl stored on ice during the assay.
(§11) (D) Test Solution - See general protocol, number 8.
(§12) Procedure: Use the above solutions in the general protocol described above.

Human Sputum Elastase = target: T3, Human Sputum Elastase (Homo sapiens, UniProt P08246); test: Elastase assay (spectrophotometric, p-nitroanilide substrate); conditions: for Inhibitory Activity Elastase: inhibitor/protease ratio between about 10/1 and 50/1; for inhibition of human elastase (in words): text discussion of Table III
T3 construct: Human Sputum Elastase, product No. SE-563 EPC, Inc., Pacific, Mo; USA, Lot 85701; purchased EPC, Inc., Pacific, Mo; USA SE-563; host or cells: human sputum
T3 sequence (P08246 30-267): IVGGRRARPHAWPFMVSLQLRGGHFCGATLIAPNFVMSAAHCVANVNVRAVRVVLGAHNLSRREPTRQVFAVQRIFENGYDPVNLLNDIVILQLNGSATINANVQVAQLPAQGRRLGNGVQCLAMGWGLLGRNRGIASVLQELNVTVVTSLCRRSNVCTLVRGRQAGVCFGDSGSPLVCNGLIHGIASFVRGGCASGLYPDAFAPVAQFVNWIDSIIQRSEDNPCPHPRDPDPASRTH
Method: as §1, §2, §3, §4, §5, §6, §7, §8, §9, §10
(A) Buffer Solution - Tris-NaCl buffer consisting of 0.1M Tris-HCl pH 7.5 at 25° C. containing 0.5M NaCl and 0.01% (w/v) NaNs.
(B) Substrate Solution - Dissolve 45.5 mg of N-succinyl-L-alanyl-L-alanyl-L-alanine p-nitroanilide in 1 ml of 1-methyl-2-pyrrolidinone. Add 32 ml of Tris-NaCl buffer.
(C) Enzyme Solution - Human Sputum Elastase, product No. SE-563 EPC, Inc., Pacific, Mo. USA, Lot 85701. Dissolve 1 mg in 1 ml of Tris-NaCl buffer. Store on ice or at 4° C.
as §11, §12
(1) Buffer Solution - Tris-NaCl buffer -see Method 1.
(2) Substrate Solution - Dissolve 50 mg of 3-carbomethoxypropionyl-L-alanyl-L-alanyl-L-[…]-L-valine p-nitroanilidein 1 ml of 1-methyl-2-pyrrolidinone. Add 32 ml of Tris-NaCl buffer.
(3) Enzyme Solution - Human sputum elastase, product No. SE-563, EPC, inc. Pacific, Mo. USA, Lot 85071. Prepare a sample at a concentration of 0.01 mg per ml of Tris-NaCl buffer. Store on ice.
(4) Test Solution - general protocol, number 8.
Procedure: Use the above solutions in the general protocol.
(1) Porcine pancreatic elastase may be substituted for human elastase when it is desired to test for an inhibitor of the former.
(2) The activity of an elastase preparation can be calculated as [formula]
(3) The Tris-NaCl buffer also can be pH 8.0 with 0.03% sodium azide. Results should be compared at a single pH.

| Substance | Inhibitory Activity Cathepsin G (Human Sputum Cathepsin G) | Inhibitory Activity Chymotrypsin (bovine chymotrypsin) | Inhibitory Activity Trypsin (bovine trypsin) | Inhibitory Activity Elastase (Human Sputum Elastase) | inhibition of human elastase (in words) (Human Sputum Elastase) | inhibition of cathepsin G (in words) (Human Sputum Cathepsin G) | inhibition of chymotrypsin (in words) (bovine chymotrypsin) | inhibition of trypsin (in words) (bovine trypsin) |
| --- | --- | --- | --- | --- | --- | --- | --- | --- |
| R V C Hyp VILMKCKKDSDCLAECVCLEHGYCG [Peptide 47] | - (Represents less than 10% inhibition) | - (Represents less than 10% inhibition) | - (Represents less than 10% inhibition) | ++ (Represents greater than 50% inhibition) | continue to be inhibitors of human elastase | – | – | – |
| RVCPFILMKCKKDSDCLAECVCLEHGYCG (RVCPFILMKCKKDSDCLAECVCLEHGYCG) [Peptide 15] | ++ (Represents greater than 50% inhibition) | ++ (Represents greater than 50% inhibition) | ++ (Represents greater than 50% inhibition) | ++ (Represents greater than 50% inhibition) | inhibited | Inhibition of chymotrypsin and cathepsin G was observed | Inhibition of chymotrypsin and cathepsin G was observed | inhibited |
| RVCPVALMKCKKDSDCLAECVCLEHGYCG (RVCPVALMKCKKDSDCLAECVCLEHGYCG) [Peptide 48] | - (Represents less than 10% inhibition) | - (Represents less than 10% inhibition) | - (Represents less than 10% inhibition) | + (Represents between 10% and 50% inhibition) | continue to be inhibitors of human elastase | – | – | – |
| RVCPRILMKCKKDSDCLAECVCLEHGYC (RVCPRILMKCKKDSDCLAECVCLEHGYC) [Control, comparative control, reference compound] | - (Represents less than 10% inhibition) | - (Represents less than 10% inhibition) | ++ (Represents greater than 50% inhibition) | - (Represents less than 10% inhibition) | – | – | – | – |
| RVCPAILMKCKKDSDCLAECVCLEHGYCG (RVCPAILMKCKKDSDCLAECVCLEHGYCG) [Peptide 36] | + (Represents between 10% and 50% inhibition) | ++ (Represents greater than 50% inhibition) | + (Represents between 10% and 50% inhibition) | ++ (Represents greater than 50% inhibition) | continue to be inhibitors of human elastase | – | – | – |
| RVCPLILMKCKKDSDCLAECVCLEHGYCG (RVCPLILMKCKKDSDCLAECVCLEHGYCG) [Peptide 29] | + (Represents between 10% and 50% inhibition) | ++ (Represents greater than 50% inhibition) | ++ (Represents greater than 50% inhibition) | ++ (Represents greater than 50% inhibition) | continue to be inhibitors of human elastase | – | – | – |
| RVCPVSLMKCKKDSDCLAECVCLEHGYCG (RVCPVSLMKCKKDSDCLAECVCLEHGYCG) [Peptide 44] | - (Represents less than 10% inhibition) | - (Represents less than 10% inhibition) | - (Represents less than 10% inhibition) | ++ (Represents greater than 50% inhibition) | – | – | – | – |
| RVCGVILMKCKKDSDCLAECVCLEHGYCG (RVCGVILMKCKKDSDCLAECVCLEHGYCG) [Peptide 46] | - (Represents less than 10% inhibition) | - (Represents less than 10% inhibition) | - (Represents less than 10% inhibition) | ++ (Represents greater than 50% inhibition) | continue to be inhibitors of human elastase | – | – | – |
| RVCPMILMKCKKDSDCLAECVCLEHGYCG (RVCPMILMKCKKDSDCLAECVCLEHGYCG) [Peptide 22] | + (Represents between 10% and 50% inhibition) | ++ (Represents greater than 50% inhibition) | ++ (Represents greater than 50% inhibition) | ++ (Represents greater than 50% inhibition) | inhibits | inhibits | inhibits | inhibits |
